What was measured:
rat NGF = target: T1, rat NGF (rat, UniProt P25427 122-241); experiment: SPR (Biacore), NGF amine-coupled on chip, antibody injected
T1 construct: also called rN
Protocol: (§1) Antibody binding affinities of the antibodies against canine NGF were determined by surface plasmon resonance (SPR) on a Biacore system (Biocore Life Sciences (GE Healthcare), Uppsala, Sweden). Immobilization of canine and rat NGF were obtained by amine coupling […] NGF using N-hydroxysuccinimide (NHS)/1-Ethyl-3-(3-dimethylaminopropyl) carbodiimide (EDC) chemistry. Chips were quenched with ethanolamine and the affinity with which all candidate mAbs bound to the immobilized NGF was evaluated. Various concentrations of canine and felinized anti-NGF antibodies were injected over the NGF surfaces while the association of the antibody to the antigen and the dissociation of the formed complex were monitored in real time. Kinetic analysis was performed to obtain the equilibrium dissociation constant (KD).

canine NGF = target: T2, canine NGF (canine, UniProt Q29074 110-229 (pig entry), limits assumed); experiment: as above
T2 construct: The protein was secreted from CHO cells and purified; also called cNGF; canine β-NGF
T2 chain: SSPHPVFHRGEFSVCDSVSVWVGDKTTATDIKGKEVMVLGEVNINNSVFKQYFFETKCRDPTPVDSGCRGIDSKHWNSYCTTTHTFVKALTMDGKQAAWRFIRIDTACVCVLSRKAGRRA
Protocol: as §1

human NGF = target: T3, human NGF (human, UniProt P01138 122-241); experiment: SPR (Biacore), human NGF amine-coupled on chip, antibody injected
T3 construct: also called human Nerve Growth Factor; hN
T3 chain: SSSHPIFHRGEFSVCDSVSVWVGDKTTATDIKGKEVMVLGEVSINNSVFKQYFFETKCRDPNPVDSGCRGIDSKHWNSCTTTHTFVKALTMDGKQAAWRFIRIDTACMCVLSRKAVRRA
Protocol: Antibody binding affinities of the antibodies against human NGF (SEQ ID NO.66) were determined by surface plasmon resonance (SPR). Human NGF was immobilized on the surface of a BIACORE chip by direct amine coupling. Various concentrations of the described humanized anti-NGF antibodies were injected over the human NGF surfaces while the association of the antibody to the antigen and the dissociation of the formed complex were monitored in real time. Kinetic analysis was performed to obtain the equilibrium dissociation constant (KD).

T1 sequence (P25427 122-241 limits assumed): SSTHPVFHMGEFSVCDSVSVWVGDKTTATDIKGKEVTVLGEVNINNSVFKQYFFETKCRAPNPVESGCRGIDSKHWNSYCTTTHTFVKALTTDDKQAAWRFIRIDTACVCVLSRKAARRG

B1: ZTS-841 (antibody, V domains shown)
VH: EVQLVESGGDLVKPGGSLRLSCVASGFTFSSHGMHWVRQSPGKGLQWVAVINSGGSSTYYTDAVKGRFTISRDNAKNTVYLQMNSLRAEDTAMYYCAKESVGGWEQLVGPHFDYWGQGTLVIVSS
VL: QSVLTQPTSVSGSLGQRVTISCSGSTNNIGILGASWYQLFPGKAPKLLVYGNGNRPSGVPDRFSGADSGDSVTLTITGLQAEDEADYYCQSFDTTLGAHVFGGGTHLTVL
notes: Canine mAb; also called 9L12; can9L12
Kd (rat NGF): 108 pM | koff (rat NGF): 4.61e-05 s⁻¹ | kon (rat NGF): 587000 M⁻¹ s⁻¹ | Kd (canine NGF): 50.6 pM | koff (canine NGF): 2.36e-05 s⁻¹ | kon (canine NGF): 527000 M⁻¹ s⁻¹

B2: ZTS-842 (antibody, V domains shown)
VH: EVQLVESGGDLVKPGGSLRLSCVASGFTFSTYGINWVRQAPGKGLQWVAYISSGGSSTYYADPVKGRFTISRDDAKNMLYLQMNSLRAEDTAIYYCAGSRYTYAYGGGYEFHFWGQGTLVTVSS
VL: QAVLNQPASVSGALGQKVTISCSGSTMDIDIFGVSWYQQLPGKAPKLLVDSDGDRPSGIPDRFSGSRSGNSGTLTITGLQAEDEADYHCQSGDSTLGALAIFGGGTHVTVL
notes: Canine mAb; also called 48L2; can48L2
Kd (rat NGF): 3.25 pM | koff (rat NGF): 1.42e-06 s⁻¹ | kon (rat NGF): 573000 M⁻¹ s⁻¹ | Kd (canine NGF): 21.7 pM | koff (canine NGF): 2.27e-05 s⁻¹ | kon (canine NGF): 703000 M⁻¹ s⁻¹

B3: ZTS-205 (antibody, V domains shown)
VH: DVQLVESGGDLVKPGGSLRLTCVASGFTFSTYGINWVRQAPGKGLQWVAYISSGGSSTYYADPVKGRFTISRDNAKNMLYLQMNNLKTEDTATYYCAGSRYTYAYGGGYEFHFWGQGTLVTVSS
VL: QAVLNQPSSVSGALGQRVTISCSGSTMDIDIFGVSWYQQIPGMAPKTIIDSDGDRPSGVPDRFSGSKSGSTGTLTITGLQAEDEADYYCQSGDSTLGALAIFGGGTHVTVLG
notes: Felinized 48L2; also called fel48L2 1.1; fel48L21.1
Kd (rat NGF): 277 pM | koff (rat NGF): 0.00029 s⁻¹ | kon (rat NGF): 672000 M⁻¹ s⁻¹ | Kd (canine NGF): 111 pM | koff (canine NGF): 8.93e-05 s⁻¹ | kon (canine NGF): 426000 M⁻¹ s⁻¹

B4: humanized mAb can48L2VH_HM855336.1 / can48L2VL_Z22192.1_P8A (antibody, V domains shown)
VH: EVQLVESGGGLVQPGGSLRLSCAASGFTFSTYGMNWVRQAPGKGLEWVSYISSGGSSIYYADSVKGRFTISRDNAKNSLYLQMNSLRAEDTAVYYCAGSRYTYAYGGGYEFHFWGQGTLVTVSS
VL: QSVVTQPASVSGAPGQRVTISCTGSTMDIDIFGVSWYQQLPGTAPKLLIYGDGDRPSGVPDRFSGSKSGASASLAITGLQAEDEADYHCQSGDSTLGALAIFGGGTHVTVL
Kd (human NGF): 841 pM | koff (human NGF): 0.000212 s⁻¹ | kon (human NGF): 252000 M⁻¹ s⁻¹

B5: humanized mAb can48L2VH_HM855336.1 / can48L2VL_Z22192.1_P14L (antibody, V domains shown)
VH: EVQLVESGGGLVQPGGSLRLSCAASGFTFSTYGMNWVRQAPGKGLEWVSYISSGGSSIYYADSVKGRFTISRDNAKNSLYLQMNSLRAEDTAVYYCAGSRYTYAYGGGYEFHFWGQGTLVTVSS
VL: QSVVTQPPSVSGALGQRVTISCTGSTMDIDIFGVSWYQQLPGTAPKLLIYGDGDRPSGVPDRFSGSKSGASASLAITGLQAEDEADYHCQSGDSTLGALAIFGGGTHVTVL
Kd (human NGF): 1490 pM | koff (human NGF): 0.000422 s⁻¹ | kon (human NGF): 283000 M⁻¹ s⁻¹
